# According to article PMC9978035, “Human uridine 5′-monophosphate synthase stores metabolic potential in inactive biomolecular condensates” (The Journal of Biological Chemistry, 2023):
# Substitutions are numbered along the chain they refer to. Names may count otherwise.
# B1: Human uridine 5′-monophosphate synthase (HsUMPS), wildtype (enzyme, UniProt P11172 1-480, looked up)
# chain: MAVARAALGPLVTGLYDVQAFKFGDFVLKSGLSSPIYIDLRGIVSRPRLLSQVADILFQTAQNAGISFDTVCGVPYTALPLATVICSTNQIPMLIRRKETKDYGTKRLVEGTINPGETCLIIEDVVTSGSSVLETVEVLQKEGLKVTDAIVLLDREQGGKDKLQAHGIRLHSVCTLSKMLEILEQQKKVDAETVGRVKRFIQENVFVAANHNGSPLSIKEAPKELSFGARAELPRIHPVASKLLRLMQKKETNLCLSADVSLARELLQLADALGPSICMLKTHVDILNDFTLDVMKELITLAKCHEFLIFEDRKFADIGNTVKKQYEGGIFKIASWADLVNAHVVPGSGVVKGLQEVGLPLHRGCLLIAEMSSTGSLATGDYTRAAVRMAEEHSEFVVGFISGSRVSMKPEFLHLTPGVQLEAGGDNLGQQYNSPQEVIGKRGSDIIIVGRGIISAADRLEAAEMYRKAAWEAYLSRLGV
# notes: Human UMP synthase (UMPS), bifunctional enzyme with OPRT and OMPDC domains; codon-optimized human UMPS in pDB-His-MBP between NdeI and XhoI; expected protomer MW 52 kDa; both domains are present and the expected protomer mass of 52 kDa fits the whole protein (surmise); also called human UMPS; UMP synthase; source: E. coli BL21(DE3), purified (amylose resin, on-column TEV cleavage, Ni-NTA, SEC or …)
# B2: HsUMPS D312N (OMPDC active site mutant) (enzyme, human, UniProt P11172 1-480, looked up)
# chain: B1 chain with D312N
# notes: Human UMP synthase (UMPS) with the OMPDC active site mutation D312N; same construct as the wildtype; as m1 with the mutation; also called OMPDC mutant; source: E. coli BL21(DE3), purified in a similar fashion as WT; not shown: His6, N-terminal, cleaved; MBP, N-terminal, cleaved
# B3: HsUMPS E123Q (OPRT active site mutant) (enzyme, human, UniProt P11172 1-480, looked up)
# chain: B1 chain with E123Q
# notes: Human UMP synthase (UMPS) with the OPRT active site mutation E123Q; same construct as the wildtype; as m1 with the mutation; also called E123Q OPRT mutant; source: E. coli BL21(DE3), purified in a similar fashion as WT; not shown: His6, N-terminal, cleaved; MBP, N-terminal, cleaved
# B4: HsUMPS S87T/Q90E (OPRT dimerization-deficient mutant) (enzyme, human, UniProt P11172 1-480, looked up)
# chain: B1 chain with S87T, Q90E
# notes: Human UMP synthase (UMPS) with the double mutation S87T/Q90E at the native OPRT dimer interface; same construct as the wildtype; as m1 with the mutations; also called oligomerization-deficient mutant; source: E. coli BL21(DE3), purified in a similar fashion as WT; not shown: His6, N-terminal, cleaved; MBP, N-terminal, cleaved
# Experiments:
# [1] = molecular target: the molecule itself; experiment: SEC; 20 mM Tris pH 7.5, 100 mM NaCl; SEPAX SRT-10-SEC-300 or Superdex 200 columns; MW standards run under the same conditions; also run with 500 μM orotate
# [2] = molecular target: the molecule itself; experiment: cross-linking; SEC fractions in 50.0 mM Na3PO4 pH 8.0, 100.0 mM NaCl, 0.004% glutaraldehyde, quenched at time points up to 2 h, SDS-PAGE
# [3] = molecular target: the molecule itself; experiment: AUC; sedimentation at 38,000 rpm, absorbance at 280 nm, 1 mg/ml (WT) or 1.5 mg/ml (mutants) and 1:5 dilutions, SEDFIT continuous sedimentation profiles
protein,measurement,setting,value
B1,stoichiometry N,[1],2
B2,binding result,[1],binds
B3,stoichiometry N,[2],2
B4,stoichiometry N,[3],2
